Assay results published in paper PMC11253607, “A conserved inhibitory interdomain interaction regulates DNA-binding activities of hybrid two-component systems in Bacteroides” (mBio, 2024).
Substitutions are numbered along the chain they refer to.

What was measured:
[1] = biological target: T1, BT4663-RRAD C1174A;H1175D (Bacteroides thetaiotaomicron VPI 5482) (UniProt Q89YR8); assay: EMSA; conditions: 50 mM Tris pH 7.6, 200 mM NaCl, 2.5% glycerol, 2 mM MgCl2, 0.5 mM DTT, 0.1 ug/uL BSA, 10 ng/uL salmon sperm DNA, ~2.5 ng/uL DNA; 30 min, temperature not …
T1 sequence: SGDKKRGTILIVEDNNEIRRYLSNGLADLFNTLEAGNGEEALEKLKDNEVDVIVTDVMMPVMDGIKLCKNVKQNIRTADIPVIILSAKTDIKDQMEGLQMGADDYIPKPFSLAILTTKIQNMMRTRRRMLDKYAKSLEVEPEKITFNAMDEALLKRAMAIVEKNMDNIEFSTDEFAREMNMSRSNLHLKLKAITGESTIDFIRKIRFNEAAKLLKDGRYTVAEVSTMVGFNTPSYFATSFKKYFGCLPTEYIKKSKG

[2] = biological target: T2, BT4663-RRAG C1174A;H1175G (Bacteroides thetaiotaomicron VPI 5482) (UniProt Q89YR8); assay: EMSA; conditions: 50 mM Tris pH 7.6, 200 mM NaCl, 2.5% glycerol, 2 mM MgCl2, 0.5 mM DTT, 0.1 ug/uL BSA, 10 ng/uL salmon sperm DNA, ~2.5 ng/uL DNA; 30 min, temperature not …
T2 sequence: T1 sequence with D79G

GATGGTAGTGTGGGGTCTCATGCCTAGGATACAGGAGATAAACAGCTTTTTTAAACAAAAACAACATATGTCTCAACAAATTTGATATCAAAAAAATCATTTTTGAACAAAGTATGAACAACCTAAATTAAAGAATCTAATTAATGAGGTTACATTTGCAACAGTAAAATAACACTTTTAATAATTATAAAACCTAATAAAGTATGAAGAACGAGACCGAAATTCAATAAGGAGG (double strand) [bt4662 promoter fragment]
Kd [1]: 0.9 µM
Kd [2]: 0.9 µM
